Measured values: paper PMC3824165

Legend:
[1] = molecular target: host cellular β-tubulin (Vero cells) (African green monkey (endogenous in Vero)); experiment: co-IP
[2] = molecular target: host cellular β-tubulin (293T cells) (human (endogenous in 293T)) (UniProt P07437); experiment: co-IP

Substance: 3xFLAG-tagged full-length TgRON4 lacking its putative signal sequence (TgRON4-Full) (from UniProt B6KJ32 27-984) (natural protein)
- ratio of precipitated TgRON4 to TgRON4 in total membrane fraction [1]: 1%

Substance: 3xFLAG-tagged C-terminal half of TgRON4 (TgRON4B) (domain or fragment)
- ratio of precipitated TgRON4 to TgRON4 in total membrane fraction [2]: 0.82%
- ratio of precipitated TgRON4 to TgRON4 in total membrane fraction [1]: 0.56%
